Consider one protein from paper PMC8647080, “Evolution of CPEB4 Dynamics Across its Liquid–Liquid Phase Separation Transition” (The Journal of Physical Chemistry. B, 2021).

This data set deals with the molecule itself. The experiment in a line: CW-EPR line shape of the spin label; X band, 2-45 °C, 10-112 μM, 100 mM NaCl, pH 8; spectra simulated with three components (I monomer, II and III in assemblies).

B1: spin labeled CPEB4NTD-C441S/G320C (domain or fragment, human, UniProt Q17RY0-2 1-448, looked up)
chain: MGDYGFGVLVQSNTGNKSAFPVRFHPHLQPPHHHQNATPSPAAFINNNTAANGSSAGSAWLFPAPATHNIQDEILGSEKAKSQQQEQQDPLEKQQLSPSPGQEAGILPETEKAKSEENQGDNSSENGNGKEKIRIESPVLTGFDYQEATGLGTSTQPLTSSASSLTGFSNWSAAIAPSSSTIINEDASFFHQGGVPAASANNGALLFQNFPHHVSPGFGGSFSPQIGPLSQHHPHHPHFQHHHSQHQQQRRSPASPHPPPFTHRNAAFNQLPHLANNLNKPPSPWSSYQSPSPTPSSSWSPGGGGYGGWGGSQGRDHRRCLNGGITPLNSISPLKKNFASNHIQLQKYARPSSAFAPKSWMEDSLNRADNIFPFPDRPRTFDMHSLESSLIDIMRAENDTIKARTYGRRRGQSSLFPMEDGFLDDGRGDQPLHSGLGSPHSFSHQNGE
modifications: nitroxide spin label on the introduced cysteine 320 (marked * in the paper)
notes: also called C441S/G320C CPEB4NTD mutant; source: E. coli BL21(DE3), purified using the same protocol (Ni2+-NTA, Superdex-200)
Consider B1, for which the binding result is “binds”.
